Results as given in article PMC5716189 (Nucleic Acids Research, 2017).
Square brackets hold non-standard residues; d marks the D form. Ends that are not written are not given here. * marks the point of attachment. FITC = O=C1OC2(c3ccc(O)cc3Oc3cc(O)ccc32)c2ccc(NC(=S)*)cc21; pT = C[C@@H](OP(=O)(O)O)[C@H](N)C(=O)O; pS = N[C@@H](COP(=O)(O)O)C(=O)O

Legend:
Details in all cases: both partners purified
[1] = biological target: T1, APLF FHA domain (forkhead-associated domain of aprataxin and PNKP-like factor) (human, UniProt Q8IW19 1-105); assay: fluorescence polarisation; pH 7.4; apparent dissociation constants; FITC-Gly-Gly-labelled peptide with APLF FHA; 25 mM HEPES, 25 mM MES, 150 mM NaCl, 1 mM EDTA, 2 mM DTT, 0.05% Tween 20; room temperature; single-site fit
T1 sequence: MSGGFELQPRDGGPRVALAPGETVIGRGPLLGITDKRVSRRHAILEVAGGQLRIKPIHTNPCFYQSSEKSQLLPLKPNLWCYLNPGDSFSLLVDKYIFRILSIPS

[2] = biological target: T1, APLF FHA domain (forkhead-associated …); assay: fluorescence polarisation; pH 5.5; apparent dissociation constants; FITC-Gly-Gly-labelled peptide with APLF FHA; 25 mM HEPES, 25 mM MES, 150 mM NaCl, 1 mM EDTA, 2 mM DTT, 0.05% Tween 20; room temperature; single-site fit
[3] = biological target: T1, APLF FHA domain (forkhead-associated …); assay: fluorescence polarisation; pH 6.0; apparent dissociation constants; FITC-Gly-Gly-labelled peptide with APLF FHA; 25 mM HEPES, 25 mM MES, 150 mM NaCl, 1 mM EDTA, 2 mM DTT, 0.05% Tween 20; room temperature; single-site fit
[4] = biological target: T1, APLF FHA domain (forkhead-associated …); assay: fluorescence polarisation; pH 6.5; apparent dissociation constants; FITC-Gly-Gly-labelled peptide with APLF FHA; 25 mM HEPES, 25 mM MES, 150 mM NaCl, 1 mM EDTA, 2 mM DTT, 0.05% Tween 20; room temperature; single-site fit
[5] = biological target: T1, APLF FHA domain (forkhead-associated …); assay: fluorescence polarisation; pH 7.0; apparent dissociation constants; FITC-Gly-Gly-labelled peptide with APLF FHA; 25 mM HEPES, 25 mM MES, 150 mM NaCl, 1 mM EDTA, 2 mM DTT, 0.05% Tween 20; room temperature; single-site fit
[6] = biological target: T1, APLF FHA domain (forkhead-associated …); assay: NMR titration; 2D 1H,15N-HSQC of 0.1 mM U-[15N] APLF-FHA as a function of phosphopeptide concentration (0–800 μM); 25 mM HEPES, 25 mM MES, 150 mM NaCl, 1 mM EDTA, pH 7.4; 35°C; lineshape simulation (two-site exchange) for Kd and τB of the 18-residue peptide
[7] = biological target: T1, APLF FHA domain (forkhead-associated …); assay: as above; remark: listed apart in the source
[8] = biological target: T1, APLF FHA domain (forkhead-associated …); assay: crystal structure; sitting drop vapor diffusion, 20°C; APLF FHA 9–10 mg/ml with peptide at a 1:1 peptide:protein ratio

B1: FITC-Gly-Gly-XRCC1_(pSpT-24) diphosphopeptide (peptide)
peptide: {FITC}-GGQEENGEDPYAG[pS][pT]DENTDSEEHQE
- Kd [1]: 160 ± 20 nM
- Kd [2]: 6.65 ± 2.35 µM
- Kd [3]: 3.65 ± 0.91 µM
- Kd [4]: 320 ± 90 nM
- Kd [5]: 200 ± 30 nM

B2: XRCC1_(pSpT-18) diphosphopeptide, unlabelled (NMR studies) (peptide)
peptide: DPYAG[pS][pT]DENTDSEEHQE
- Kd [6]: 4 µM

B3: XRCC1_(pSpT-9) diphosphopeptide (peptide)
peptide: PYAG[pS][pT]DEN
- Kd [7]: 80 µM

B4: XRCC1_(EpT-9) monophosphopeptide (peptide)
peptide: PYAGE[pT]DEN
- binding result [8]: binds

B5: FITC-Gly-Gly-XRCC1_(pSpTEE-18) diphosphopeptide (peptide)
peptide: {FITC}-GGDPYAG[pS][pT]DENEDEEEHQE
- Kd [1]: 300 ± 70 nM
